Data reported in patent publication US20190284275A1.

biological target: human KRAS (antigen of the affinity data in Table 1; variant not stated) (human) (UniProt P01116); assay: kinetic affinity measurement (Rmax in RU; method and format not named)

Binder | Kd | koff | kon
1F4_4E10 (antibody, V domains shown) VH: EVQLVQSGGGVVQPGRSLRLSCAASGFTSRAPGMHWVRQAPGKGLEWVAVISHDGSKKYYADSVKGRFTISRDNSKNTLFVQLSSLRPEDTAVYYCATSLYSSMDLWGQGTTVTVSS VL: QSVVTQPPSVSAAPGQKVTISCSGSNSNIGKNYVSWFQQVPGTAPKLLIFEDNQRPSGIPDRFSASKSGTSASLAISGLQSEDEADYYCAAWDDHNGEHWVFGGGTKLTVL | 9.6 nM | 0.0013 s⁻¹ | 135000 M⁻¹ s⁻¹
1F4_1E3 (antibody, V domains shown) VH: EVQLVQSGGGVVQPGRSLRLSCAASGFTSRHPGMHWVRQAPGKGLEWVAVISHDGSKKYYADSVKGRFTISRDNSKNTLFVQLSSLRPEDTAVYYCATSLYSSMDLWGQGTTVTVSS VL: QSVVTQPPSVSAAPGQKVTISCSGSNSNIGKNYVSWFQQVPGTAPKLLIFEDNQRPSGIPDRFSASKSGTSASLAISGLQSEDEADYYCAAWDDYRGPHWVFGGGTKLTVL | 4.2 nM | – | –

Continued, values first:

Kd | koff | kon | Binder
6.63 nM | 0.0011 s⁻¹ | 166000 M⁻¹ s⁻¹ | 1F4_5C5 (antibody, V domains shown) VH: EVQLVQSGGGVVQPGRSLRLSCAASGFTSKKYGMHWVRQAPGKGLEWVAVISHDGSKKYYADSVKGRFTISRDNSKNTLFVQLSSLRPEDTAVYYCATSLYSSMDLWGQGTTVTVSS VL: QSVVTQPPSVSAAPGQKVTISCSGSNSNIGKNYVSWFQQVPGTAPKLLIFEDNQRPSGIPDRFSASKSGTSASLAISGLQSEDEADYYCAAWDDLGGDHWVFGGGTKLTVL
12.6 nM | 0.00229 s⁻¹ | 182000 M⁻¹ s⁻¹ | 1F4_5F8 (antibody, V domains shown) VH: EVQLVQSGGGVVQPGRSLRLSCAASGFTSRNPGMHWVRQAPGKGLEWVAVISHDGSKKYYADSVKGRFTISRDNSKNTLFVQLSSLRPEDTAVYYCATSLYSSMDLWGQGTTVTVSS VL: QSVVTQPPSVSAAPGQKVTISCSGSNSNIGKNYVSWFQQVPGTAPKLLIFEDNQRPSGIPDRFSASKSGTSASLAISGLQSEDEADYYCAAWDDSTGVHWVFGGGTKLTVL
